Measurements taken from patent publication US20050084840A1, “Method for screening drug for improving insulin resistance” (priority 2002, published 2005).

Molecular target: GAL-PPARγ: chimera protein of the DNA binding region (1-147 amino acids) of yeast Gal4 with the ligand binding region of human PPARγ2 fused to its C terminus, expressed in COS-1 cells (yeast; human) (UniProt P04386)
Assay: cell-based or functional assay

promotion of the transcription induction ability of PPARγ in the presence of AOP2 (corrected luciferase activity, COS-1), GI-262570 at 1.0 µM and 10 µM: 3.5 fold
promotion of the transcription induction ability of PPARγ in the presence of AOP2 (corrected luciferase activity, COS-1), GL-100085 at 1.0 to 10 µM: 4 to 6 fold
promotion of the transcription induction ability of PPARγ in the presence of AOP2 (corrected luciferase activity, COS-1), GW7282 at 1.0 to 10 µM: 4 to 5 fold
B1: full-length AOP2 with vector-derived V5 epitope and HIS6 tag at the C terminus, expressed from pcDNA-AOP2 in COS-1 cells (protein, not shown: small tags and cut ends)
chain: PGGLLLGDVAPNFEANTTVGRIRFHDFLGDSWGILFSHPRDFTPVCTTELGRAAKLAPEFAKRNVKLIALSIDSVEDHLAWSKDINAYNCEEPTEKLPFPIIDDRNRELAILLGMLDPAEKDEKGMPVTARVVFVFGPDKKLKLSILYPATTGRNFDEILRVVISLQLTAEKRVATPVDWKDGDSVMVLPTIPEEEAKKLFPKGVFTKELPSGKKYLRYTPQP
